Assay results taken from the RNAGym collection of RNA variant scans (doi:10.7554/elife.90254).

B1: OR4K15 (parent)
chain: GUUAACGGUCAUAGGCCAUGGAAACUAGGAGCACCAUUUCGCUGCCAGUGAAGAAAUGAACAAAGAAAAUCUGGGCCAGGCAGGCAUCAAAAGAAAUAGUCUUGCGCUCAACCAGAAAGUCUGUAAUCAUUUUAAGGGUA

Variants of: B1
Test: self-cleavage, relative activity (ratio to wild type); higher = more cleavage; in vitro, sequencing; the parent is a self-cleaving ribozyme

Variant | self-cleavage
GUUAACGGUCAUAGGCCAUGGAAACUAGGAGCACCAUUUCGCUGCCAGUGAAGAAAUGAACAAAGAAAAUCUGGGCCGGGCAGGCAUCAAAAGAAAAAGUCUUGCGCUCAACCAGAAAGUCUGUAAUCAUUUUAAGGGUA [A78G U97A] | 0.27
GUUAACGGUCAUAGGCCAUGGAAACUAGGAGCACCAUUUCGCUGCCAGUGAAGAAAUGAACAAAGAAAAUCUGGGCCAGGCCGGCAUCAAUAGAAAUAGUCUUGCGCUCAACCAGAAAGUCUGUAAUCAUUUUAAGGGUA [A82C A91U] | 0.3
GUUAACGGUCAUAGGCCACGGAAACUAGGAGCACCAUUUCGCUGCCAGUGAAGAUAUGAACAAAGAAAAUCUGGGCCAGGCAGGCAUCAAAAGAAAUAGUCUUGCGCUCAACCAGAAAGUCUGUAAUCAUUUUAAGGGUA [U19C A55U] | 1.69
GUUAACGGUCAUAGGCCAUAGAAACUAGGAGCACCAUUUCGCUGCCAGUGAAGAAAUGAACAAAGAAAAUCUGGGCCAGGCAGGCAUCAAAUGAAAUAGUCUUGCGCUCAACCAGAAAGUCUGUAAUCAUUUUAAGGGUA [G20A A92U] | 0.79
GUUAACGGUCAUAGGCCAUGGGAACUAGGAGCACCAUUUCGCUGCCAGUGAAGAAAUGAACAAAGAAAAUCUGGGCCAGGCAGGCAUCAAAAGAAAUAGUCUUGCGCUCAACCAGAAAGUCUGGAAUCAUUUUAAGGGUA [A22G U124G] | 0.96
GUUAACGGUCAUAGGCCAUGGAAACUAGGAGCACCAUUUCGCUGCCAGUGAAGGAAUGAACAAAGAAAAUCUGGGCCAGGCAGGCAUCAAAAGAAAUAGUCUUGAGCUCAACCAGAAAGUCUGUAAUCAUUUUAAGGGUA [A54G C105A] | 0.06
GUUAACGGUCAUAGGCCUUGGAAACUAGGAGCACCAUUUCGCUGCCAGUGAAGAAAUGAACAAAGAAAAUCUGGGCCAGGCAGGCAUCAAUAGAAAUAGUCUUGCGCUCAACCAGAAAGUCUGUAAUCAUUUUAAGGGUA [A18U A91U] | 1.96
GUUAACGGUCAUAGGCCAUGGAAACUAGGAGCACCAUUUCGCUGCCAGUGAAGAAAUGGACAAAGAAAAUCUGGGCCAGGCAGGCAUCAAAAGAAAUAGUCUUGCGCUCAACCAGAUAGUCUGUAAUCAUUUUAAGGGUA [A59G A117U] | 0.95
GUUAACGGUCAUAGGCCAUGGAAACUAGGAGCACCAUUUCGCUGCCAGUGAGGAAAUGAACAAAGAAAAUCUGGGCCAGGCAGGCAUCAAAAGAAAUAGUCUAGCGCUCAACCAGAAAGUCUGUAAUCAUUUUAAGGGUA [A52G U103A] | 0.59
GUUAACGGUCAUAGGCCAUGGAAACUAGGAGCACCAUUUCGCUGCCAGUGAAGAAAUGAACAAAGAAAAUCUGGGCCCGGCAGGCAUCAAAAGAAAUAGUCUCGCGCUCAACCAGAAAGUCUGUAAUCAUUUUAAGGGUA [A78C U103C] | 0.14
GUUAACGGUCAUAGGCCAUGGAAACUAGGAGCACCAUUCCGCUGCCAGUGAAGAAAUGAACAAAGAAAAUCUGGGCCAGGCAGGCAUCAAAAGAAAUAGUCUUGCGCUCAACCAGAAAGUCGGUAAUCAUUUUAAGGGUA [U39C U122G] | 1.81
GUUAACGGUCAUAGGCCAUGGAAACUAGGAGCACCAUUUCGCUGCCAGUGAAGAAAUGAACAAAGAAAAUCUGGGCCAGGCAGGCAUCAAAAGAAAUAGUCUUGCGCUCAACCAGAAAGUCUGUAAUCGUCUUAAGGGUA [A129G U131C] | 1.38
GUUAACGGUCAUAGGCCAUGGAAACUAGGAGCACCAUUUCGCUGCCAGUGAAGAAAUGAACAAAGAAAAUCUGGGCCAGGCAGGCAUCAAUAGAAAUAGUCUUGCGCUCAACCAGAAAGUCUGUAAUCAUUAUAAGGGUA [A91U U132A] | 1.98
GUUAACGGUCAUAGGCCAUGGAAACUAGGAGCACCAUUUCGCUGCCAGUGAAGAAAUGAACAGAGAAAAUCUGGGCCAGGCAGGCAUCAAAAGAAAUAGUCUUGCGCACAACCAGAAAGUCUGUAAUCAUUUUAAGGGUA [A63G U108A] | 0.01
GUUAACGGUCAUAGGCCAUGGAAACUAGGAGCUCCAUUUCGCUGCCAGUGAAGAAAUGAACAAAGAAAAUCUGGGCCAGGCAGGCAUCAAAAGAAAUAGUCUCGCGCUCAACCAGAAAGUCUGUAAUCAUUUUAAGGGUA [A33U U103C] | 0.84
GUUAACGGUCAUAGGCCAUGGAAACUAGGAGCACCAUUUCGCUGCCAGCGAAGAAAUGAACAAAGAAAAUCUGGGCCAGGCAGGCAUCAAAAGAAAUAGUCUUGCGCUCAACCAGAAAGUCUGUAAUAAUUUUAAGGGUA [U49C C128A] | 1.11
GUUAACGGUCAUAGGCCAUGGAAACUAGGAGCACCAUUUCGCUGCCAGUGAAGAAAAGAACAAAGAAAAUCUGGGCCAGGCAGGCAUCAAAAGAAAUAGUCUUGCGCUCAACCAGAAAGUCUGUAAUCAAUUUAAGGGUA [U57A U130A] | 0.77
GUUAACGGUCAUAGGCCAUGGAAACUAGGAGCACCAUUUCGCUGCCAGUGAAGAAAUGAACAGAGAAAAUCUGGGCCAGGCAGGCAUCAAAAGAAAUAGUCUUGCGCUCAACCAGAAAGUCUGUAAUCAUGUUAAGGGUA [A63G U131G] | 1.99
GUUAGCGGUCAUAGGCCAUGGAAACUAGGAGCACCAUUUCGCUGCCAGUGAAGAAAUGAACAAAGGAAAUCUGGGCCAGGCAGGCAUCAAAAGAAAUAGUCUUGCGCUCAACCAGAAAGUCUGUAAUCAUUUUAAGGGUA [A5G A66G] | 0.87
GCUAACGGUCAUAGGCCAUGGAAACUAGGAGCACCAUUUCGCUGCCAGUGAAGAAAUGAACAAAGAAAAUCUGGGCCAGGCAGGCAUCAAAAGAAAUAGUCUUGCGCUCAACCAGAAAGUCUGUAAUCAUUUUUAGGGUA [U2C A134U] | 0.69
